Reference: patent publication US20210115152A1 (ARBELE, published 2021)

Experiments:
[1] = biological target: T1, CDH17 on tumor cells (DLD-1, AGS, AsPC1, CDH17-positive pancreatic and colon lines, SW40 with ectopic CDH17) (UniProt Q12864 23-832, limits assumed); experiment: cell-based or functional assay
T1 sequence (looked up): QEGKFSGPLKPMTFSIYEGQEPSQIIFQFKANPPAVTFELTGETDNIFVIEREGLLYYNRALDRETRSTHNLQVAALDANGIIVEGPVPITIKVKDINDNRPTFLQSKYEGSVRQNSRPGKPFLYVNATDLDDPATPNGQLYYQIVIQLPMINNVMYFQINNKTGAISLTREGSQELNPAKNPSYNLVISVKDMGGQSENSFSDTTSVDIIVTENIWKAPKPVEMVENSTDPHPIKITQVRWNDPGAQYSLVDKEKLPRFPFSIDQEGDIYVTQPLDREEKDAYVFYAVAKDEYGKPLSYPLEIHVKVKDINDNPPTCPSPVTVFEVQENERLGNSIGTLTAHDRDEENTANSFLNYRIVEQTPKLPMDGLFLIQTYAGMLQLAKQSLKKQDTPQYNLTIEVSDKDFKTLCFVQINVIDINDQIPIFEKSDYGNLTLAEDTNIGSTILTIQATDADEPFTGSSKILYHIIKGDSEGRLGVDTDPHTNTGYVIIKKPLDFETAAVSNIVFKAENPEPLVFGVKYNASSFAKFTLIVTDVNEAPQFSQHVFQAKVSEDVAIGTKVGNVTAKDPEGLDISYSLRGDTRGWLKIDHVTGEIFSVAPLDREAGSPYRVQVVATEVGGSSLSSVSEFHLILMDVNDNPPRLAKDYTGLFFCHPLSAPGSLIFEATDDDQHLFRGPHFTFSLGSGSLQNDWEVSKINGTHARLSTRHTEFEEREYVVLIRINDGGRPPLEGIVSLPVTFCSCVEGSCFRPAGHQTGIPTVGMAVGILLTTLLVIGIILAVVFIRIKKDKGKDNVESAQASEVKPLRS

CD3 on Jurkat T cells = CD3 on Jurkat T cells (UniProt P07766 23-207); experiment: cell-based or functional assay
Sequence of CD3 on Jurkat T cells (P07766 23-207): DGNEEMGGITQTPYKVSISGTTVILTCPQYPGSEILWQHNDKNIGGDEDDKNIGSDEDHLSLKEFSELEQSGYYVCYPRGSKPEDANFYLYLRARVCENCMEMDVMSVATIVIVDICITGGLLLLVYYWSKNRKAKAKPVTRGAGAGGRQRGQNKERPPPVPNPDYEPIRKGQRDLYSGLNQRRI

B1: h10G4fL (h10G4U1fL; ARB202), CDH17xCD3 bispecific antibody of the IgG-scFv / fL design, IgG4 (bispecific antibody)
heavy: EVQLVESGGGLVQPGGSLRLSCAASGFTFSSYAMSWVRQTPGKGLEWVAVIDSNGGSTYYPDTVKDRFTISRDNSKNTLYLQMNSLRAEDTAVYYCSSYTNLGAYWGQGTLVTVSSASTKGPSVFPLAPSSKSTSGGTAALGCLVKDYFPEPVTVSWNSGALTSGVHTFPAVLQSSGLYSLSSVVTVPSSSLGTQTYICNVNHKPSNTKVDKRVEPKSCDKTHTCPPCPAPELLGGPSVFLFPPKPKDTLMISRTPEVTCVVVDVSQEDPEVQFNWYVDGVEVHNAKTKPREEQFNSTYRVVSVLTVLHQDWLNGKEYKCKVSNKGLPSSIEKTISKAKGQPREPQVYTLPPSQEEMTKNQVSLTCLVKGFYPSDIAVEWESNGQPENNYKTTPPVLDSDGSFFLYSRLTVDKSRWQEGNVFSCSVMHEALHNHYTQKSLSLSLGKPAGGGGSEVQLVESGGGLVQPGGSLRLSCAASGYSFTGYTMNWVRQAPGKGLEWVALINPYKGVSTYNQKFKDRFTISVDKSKNTAYLQMNSLRAEDTAVYYCARSGYYGDSDWYFDVWGQGTLVTVSSGGGGSGGGGSGGGGSDIQMTQSPSSLSASVGDRVTITCRASQDIRNYLNWYQQKPGKAPKLLIYYTSRLESGVPSRFSGSGSGTDYTLTISSLQPEDFATYYCQQGNTLPWTFGQGTKVEIK
light: DIQMTQSPSSLSASVGDRVTITCRASQDISGYLNWLQQKPGGAIKRLIYTTSTLDSGVPKRFSGSGSGTDFTLTISSLQSEDFATYYCLQYASSPFTFGGGTKVEIKRTVAAPSVFIFPPSDEQLKSGTASVVCLLNNFYPREAKVQWKVDNALQSGNSQESVTEQDSKDSTYSLSSTLTLSKADYEKHKVYACEVTHQGLSSPVTKSFNRGEC
EC50 of IL2 production by PBMC in the presence of AsPC1 tumor cells (5:1, 16 hours) [1]: 30 pM | EC50 of IL2 production by PBMC in the absence of AsPC1 tumor cells (CD3 on Jurkat T cells): ≥ 18700 pM
